What all share (format): biochemical, Arabidopsis thaliana
Substrate in series [1]: N[C@@H](Cc1ccccc1)C(=O)O
Kind of series: forward assay, phenylpyruvate at A320, nonlinear regression. The settings on record: acceptor 2-ketoglutarate at saturation, 100 mM HEPES-NaOH pH 8.2, 30°C. The source says: forward assay, phenylpyruvate at A320, nonlinear regression on At5g36160 (L-tyrosine aminotransferase, TAT)

Substrate in series [2]: O=C(O)CCC(=O)C(=O)O
Nature of the series: forward assay, product absorbance, nonlinear regression. The note with it: amino donor at saturation (donor for this constant only in supplement), 100 mM HEPES-NaOH pH 8.2, 30°C. The source says:
forward assay, product absorbance, nonlinear regression on At5g36160 (L-tyrosine aminotransferase, TAT)

Substrate in series [3]: O=C(O)C(=O)Cc1ccccc1
Nature of the series: reverse assay, coupled to 2-ketoglutarate dehydrogenase, NADH at A340, nonlinear regression. The settings on record: amino donor glutamate at saturation, 100 mM HEPES-NaOH pH 8.2, 30°C. From the text:
(§1) reverse assay, coupled to 2-ketoglutarate dehydrogenase, NADH at A340, nonlinear regression on At5g36160 (L-tyrosine aminotransferase, TAT)

Substrate in series [4]: N[C@@H](CCC(=O)O)C(=O)O
The description is as above. The settings on record: amino acceptor at saturation (acceptor for this constant only in supplement), 100 mM HEPES-NaOH pH 8.2, 30°C.
Text: as §1

Substrate in series [5]: O=C(O)C(=O)Cc1ccc(O)cc1
The description is as above. The settings on record: amino donor glutamate at saturation, 100 mM HEPES-NaOH pH 8.2, 30°C.
Text: as §1

Substrate in series [6]: N[C@@H](Cc1ccc(O)cc1)C(=O)O
Kind of series: forward assay, 4-hydroxyphenylpyruvate at A331, nonlinear regression. The note with it: acceptor 2-ketoglutarate at saturation, 100 mM HEPES-NaOH pH 8.2, 30°C. From the text: forward assay, 4-hydroxyphenylpyruvate at A331, nonlinear regression on At5g36160 (L-tyrosine aminotransferase, TAT)

B1: At5g36160 (L-tyrosine aminotransferase, TAT) (Arabidopsis thaliana) (protein)
chain: MGENGAKRWNFGANEVVERSNSLTIRDYLNTLINCLDGGDVRPVIPLGHGDPSPFPSFRTDQAAVEAICDAVRSTKFNNYSSSSGVPVARKAVAEYLSSDLSYQISPNDVHITAGCVQAIEILISALAIPGANILLPRPTYPMYDSRAAFCQLEVRYFDLLPENGWDVDLDGVEALADDKTVAILVINPCNPCGNVFSRQHLQKIAETACKLGILVIADEVYDHFAFGDKPFVSMAEFAELVPVIVLGAISKRWFVPGWRLGWMVTLDPHGIMKDSGFVQTLINVVNMSTDPATFIQGAMPDIIGNTKEEFFSSKLEMVKKCAEICYEELMKIPCITCPCKPEGSMFTMVKLNFSLLEDISDDLDFCSKLAKEESMIILPGQAVGLKNWLRITFAVELELLIEGFSRLKNFTERHSKNQP
notes: full-length cDNA in pET30a, N-terminal His6 and S-tag kept, E. coli BL21-CodonPlus-RIPL, Talon purified, about 52 kDa on SDS-PAGE; EC 2.6.1.5
Broadly, the Km is the substrate concentration at which the rate is half of its maximum. One may read the kcat as the maximal rate divided by the concentration of active sites. As to B1, the Km is 840 ± 200 µM in series [1]; 1200 ± 270 µM in series [2]; 130 ± 60 µM in series [3]; 1400 ± 160 µM in series [4]; 220 ± 50 µM in series [5]; 190 ± 160 µM in series [6]. The kcat in series [1] is 0.08 s⁻¹; in series [2], 0.08 s⁻¹; in series [3], 6.1 s⁻¹; in series [4], 6.1 s⁻¹; in series [5] it was 6.1 s⁻¹; in series [6], 0.08 s⁻¹.

The values above are taken from publication PMC3005984, “Identification and Partial Characterization of an L-Tyrosine Aminotransferase (TAT) from Arabidopsis thaliana” (Biochemistry Research International, 2010).
